Test results taken from paper PMC11332825, “Residues in the fructose-binding pocket are required for ketohexokinase-A activity” (The Journal of Biological Chemistry, 2024).

B1: human ketohexokinase-A (KHK-A), wild type (enzyme)
chain: QILCVGLVVLDVISLVDKYPKEDSEIRCLSQRWQRGGNASNSCTVLSLLGAPCAFMGSMAPGHVADFVLDDLRRYSVDLRYTVFQTTGSVPIATVIINEASGSRTILYYDRSLPDVSATDFEKVDLTQFKWIHIEGRNASEQVKMLQRIDAHNTRQPPEQKIRVSVEVEKPREELFQLFGYGDVVFVSKDVAKHLGFQSAEEALRGLYGRVRKGAVLVCAWAEEGADALGPDGKLLHSDAFPPPRVVDTLGAGDTFNASVIFSLSQGRSVQEALRFGCQVAGKKCGLQGFDGIV
notes: ketohexokinase, splice isozyme A (KHK-A), human; good electron density for residues 3 to 298; theoretical molecular weight of the monomer printed as 34.65 kDa; Cloned into pET-28b(+) by GenScript; also called WT KHK-A; WT; source: E. coli BL21-CodonPlus-RIL, purified (Ni-NTA, Superdex 200 gel filtration)
B2: human ketohexokinase-A N42A (enzyme)
chain: QILCVGLVVLDVISLVDKYPKEDSEIRCLSQRWQRGGAASNSCTVLSLLGAPCAFMGSMAPGHVADFVLDDLRRYSVDLRYTVFQTTGSVPIATVIINEASGSRTILYYDRSLPDVSATDFEKVDLTQFKWIHIEGRNASEQVKMLQRIDAHNTRQPPEQKIRVSVEVEKPREELFQLFGYGDVVFVSKDVAKHLGFQSAEEALRGLYGRVRKGAVLVCAWAEEGADALGPDGKLLHSDAFPPPRVVDTLGAGDTFNASVIFSLSQGRSVQEALRFGCQVAGKKCGLQGFDGIV
notes: ketohexokinase, splice isozyme A (KHK-A), human, with N42A; Expressed and purified as described for WT KHK-A; PDB 2HLZ is the wild-type parent; also called KHK-A N42A; source: E. coli BL21-CodonPlus-RIL, purified (Ni-NTA, Superdex 200 gel filtration)
B3: human ketohexokinase-A D15A (enzyme)
chain: QILCVGLVVLAVISLVDKYPKEDSEIRCLSQRWQRGGNASNSCTVLSLLGAPCAFMGSMAPGHVADFVLDDLRRYSVDLRYTVFQTTGSVPIATVIINEASGSRTILYYDRSLPDVSATDFEKVDLTQFKWIHIEGRNASEQVKMLQRIDAHNTRQPPEQKIRVSVEVEKPREELFQLFGYGDVVFVSKDVAKHLGFQSAEEALRGLYGRVRKGAVLVCAWAEEGADALGPDGKLLHSDAFPPPRVVDTLGAGDTFNASVIFSLSQGRSVQEALRFGCQVAGKKCGLQGFDGIV
notes: ketohexokinase, splice isozyme A (KHK-A), human, with D15A; Expressed and purified as described for WT KHK-A; PDB 2HLZ is the wild-type parent; also called KHK-A D15A; source: E. coli BL21-CodonPlus-RIL, purified (Ni-NTA, Superdex 200 gel filtration)
B4: human ketohexokinase-A N45A (enzyme)
chain: QILCVGLVVLDVISLVDKYPKEDSEIRCLSQRWQRGGNASASCTVLSLLGAPCAFMGSMAPGHVADFVLDDLRRYSVDLRYTVFQTTGSVPIATVIINEASGSRTILYYDRSLPDVSATDFEKVDLTQFKWIHIEGRNASEQVKMLQRIDAHNTRQPPEQKIRVSVEVEKPREELFQLFGYGDVVFVSKDVAKHLGFQSAEEALRGLYGRVRKGAVLVCAWAEEGADALGPDGKLLHSDAFPPPRVVDTLGAGDTFNASVIFSLSQGRSVQEALRFGCQVAGKKCGLQGFDGIV
notes: ketohexokinase, splice isozyme A (KHK-A), human, with N45A; Expressed and purified as described for WT KHK-A; PDB 2HLZ is the wild-type parent; source: E. coli BL21-CodonPlus-RIL, purified (Ni-NTA, Superdex 200 gel filtration)
B5: human ketohexokinase-A N42K (enzyme)
chain: QILCVGLVVLDVISLVDKYPKEDSEIRCLSQRWQRGGKASNSCTVLSLLGAPCAFMGSMAPGHVADFVLDDLRRYSVDLRYTVFQTTGSVPIATVIINEASGSRTILYYDRSLPDVSATDFEKVDLTQFKWIHIEGRNASEQVKMLQRIDAHNTRQPPEQKIRVSVEVEKPREELFQLFGYGDVVFVSKDVAKHLGFQSAEEALRGLYGRVRKGAVLVCAWAEEGADALGPDGKLLHSDAFPPPRVVDTLGAGDTFNASVIFSLSQGRSVQEALRFGCQVAGKKCGLQGFDGIV
notes: ketohexokinase, splice isozyme A (KHK-A), human, with N42K; Expressed and purified as described for WT KHK-A; PDB 2HLZ is the wild-type parent; source: E. coli BL21-CodonPlus-RIL, purified (Ni-NTA, Superdex 200 gel filtration)
B6: human ketohexokinase-A K174A (enzyme)
chain: QILCVGLVVLDVISLVDKYPKEDSEIRCLSQRWQRGGNASNSCTVLSLLGAPCAFMGSMAPGHVADFVLDDLRRYSVDLRYTVFQTTGSVPIATVIINEASGSRTILYYDRSLPDVSATDFEKVDLTQFKWIHIEGRNASEQVKMLQRIDAHNTRQPPEQKIRVSVEVEAPREELFQLFGYGDVVFVSKDVAKHLGFQSAEEALRGLYGRVRKGAVLVCAWAEEGADALGPDGKLLHSDAFPPPRVVDTLGAGDTFNASVIFSLSQGRSVQEALRFGCQVAGKKCGLQGFDGIV
notes: ketohexokinase, splice isozyme A (KHK-A), human, with K174A; Expressed and purified as described for WT KHK-A; PDB 2HLZ is the wild-type parent; source: E. coli BL21-CodonPlus-RIL, purified (Ni-NTA, Superdex 200 gel filtration)
B7: human ketohexokinase-A R141E (enzyme)
chain: QILCVGLVVLDVISLVDKYPKEDSEIRCLSQRWQRGGNASNSCTVLSLLGAPCAFMGSMAPGHVADFVLDDLRRYSVDLRYTVFQTTGSVPIATVIINEASGSRTILYYDRSLPDVSATDFEKVDLTQFKWIHIEGENASEQVKMLQRIDAHNTRQPPEQKIRVSVEVEKPREELFQLFGYGDVVFVSKDVAKHLGFQSAEEALRGLYGRVRKGAVLVCAWAEEGADALGPDGKLLHSDAFPPPRVVDTLGAGDTFNASVIFSLSQGRSVQEALRFGCQVAGKKCGLQGFDGIV
notes: ketohexokinase, splice isozyme A (KHK-A), human, with R141E; Results and legends print R141E; the abstract and the discussion speak of R141A / alanine at R141; PDB 2HLZ is the wild-type parent; source: E. coli BL21-CodonPlus-RIL, purified (Ni-NTA, Superdex 200 gel filtration)
B8: human ketohexokinase-A R141E/K174A double mutant (enzyme)
chain: QILCVGLVVLDVISLVDKYPKEDSEIRCLSQRWQRGGNASNSCTVLSLLGAPCAFMGSMAPGHVADFVLDDLRRYSVDLRYTVFQTTGSVPIATVIINEASGSRTILYYDRSLPDVSATDFEKVDLTQFKWIHIEGENASEQVKMLQRIDAHNTRQPPEQKIRVSVEVEAPREELFQLFGYGDVVFVSKDVAKHLGFQSAEEALRGLYGRVRKGAVLVCAWAEEGADALGPDGKLLHSDAFPPPRVVDTLGAGDTFNASVIFSLSQGRSVQEALRFGCQVAGKKCGLQGFDGIV
notes: ketohexokinase, splice isozyme A (KHK-A), human, with R141E and K174A; Expressed and purified as described for WT KHK-A; PDB 2HLZ is the wild-type parent; source: E. coli BL21-CodonPlus-RIL, purified (Ni-NTA, Superdex 200 gel filtration)

Target: the molecule itself
Experiment: mass photometry; 100 nM protein diluted in PBS (pH 7.4), room temperature, 60 s acquisition, TwoMP mass photometer; monomer to dimer

Stoichiometry N, 2:
B1, B2, B3, B4, B5, B6, B7, B8
